Literature values in patent US20160258855A1, “Methods and Apparatus to Determine Diffusion Properties of Porous Structures for Drug Delivery” (ForSight Vision4, Inc., priority 2010, published 2016).
Like-named read-outs stand apart in the source and are kept apart here.

Experiments:
[1] = monkey eye, intravitreal, cited from earlier work
[2] = rabbit eye, intravitreal, cited from earlier work
[3] = human eye, intravitreal, cited from earlier work

ranibizumab [Lucentis]
half-life in vitreous [1]: two to four | half-life in vitreous ([1]; listed as ranibizumab): approximately 3 days | half-life in vitreous [2]: two to four | half-life in vitreous ([2]; listed as ranibizumab): approximately 3 days | half-life in vitreous [3]: about nine | half-life in vitreous ([3]; listed as ranibizumab): ~220 h
